# Results taken from patent US20180155451A1 (published 2018).
# T1: FcγRIIa R (human, UniProt P12318 34-217)
# T1 construct: extracellular domain; also called FcgRIIa R; FcγRIIa type R
# T1 sequence (looked up): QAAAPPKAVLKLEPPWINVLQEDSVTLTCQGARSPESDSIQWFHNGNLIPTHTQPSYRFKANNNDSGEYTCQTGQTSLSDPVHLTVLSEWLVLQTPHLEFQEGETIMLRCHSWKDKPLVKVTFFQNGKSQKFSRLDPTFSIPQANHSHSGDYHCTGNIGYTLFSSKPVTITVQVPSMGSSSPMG
# T2: FcγRIIb (human, UniProt P31994 43-217)
# T2 construct: extracellular domain; also called FcgRIIb
# T2 sequence (looked up): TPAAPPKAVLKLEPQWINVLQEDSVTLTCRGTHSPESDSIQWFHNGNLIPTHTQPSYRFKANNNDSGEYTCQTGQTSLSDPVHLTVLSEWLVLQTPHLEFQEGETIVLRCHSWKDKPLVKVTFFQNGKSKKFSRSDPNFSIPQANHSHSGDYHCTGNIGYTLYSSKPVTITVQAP
# B1: GpH7-A5/GpH7-B3 variant N325_19Q/GpL16-k0 (antibody, human IgG1, kappa)
# heavy 1: not shown
# heavy 2: not shown
# light: DIVMTQSPLSLPVTPGEPASISCQASESLVHSNRNTYLHWYLQKPGQSPQLLIYKVSNRFSGVPDRFSGSGSGTDFTLKISRVEAEDVGVYYCSQNTHVPPTFGQGTKVEIERTVAAPSVFIFPPSDEQLKSGTASVVCLLNNFYPREAKVQWKVDNALQSGNSQESVTEQDSKDSTYSLSSTLTLSKADYEKHKVYACEVTHQGLSSPVTKSFNRGEC
# notes: He Ab; IgG1; mutation in one H chain only
# B2: GpH7-A5/GpH7-B3 variant P329_18N/GpL16-k0 (antibody, human IgG1, kappa)
# heavy 1: not shown
# heavy 2: not shown
# light: DIVMTQSPLSLPVTPGEPASISCQASESLVHSNRNTYLHWYLQKPGQSPQLLIYKVSNRFSGVPDRFSGSGSGTDFTLKISRVEAEDVGVYYCSQNTHVPPTFGQGTKVEIERTVAAPSVFIFPPSDEQLKSGTASVVCLLNNFYPREAKVQWKVDNALQSGNSQESVTEQDSKDSTYSLSSTLTLSKADYEKHKVYACEVTHQGLSSPVTKSFNRGEC
# notes: as for B1
# B3: GpH7-A5/GpH7-B3 variant P329_16H/GpL16-k0 (antibody, human IgG1, kappa)
# heavy 1: not shown
# heavy 2: not shown
# light: DIVMTQSPLSLPVTPGEPASISCQASESLVHSNRNTYLHWYLQKPGQSPQLLIYKVSNRFSGVPDRFSGSGSGTDFTLKISRVEAEDVGVYYCSQNTHVPPTFGQGTKVEIERTVAAPSVFIFPPSDEQLKSGTASVVCLLNNFYPREAKVQWKVDNALQSGNSQESVTEQDSKDSTYSLSSTLTLSKADYEKHKVYACEVTHQGLSSPVTKSFNRGEC
# notes: as for B1
# B4: GpH7-A5/GpH7-B3 variant P329_06M/GpL16-k0 (antibody, human IgG1, kappa)
# heavy 1: not shown
# heavy 2: not shown
# light: DIVMTQSPLSLPVTPGEPASISCQASESLVHSNRNTYLHWYLQKPGQSPQLLIYKVSNRFSGVPDRFSGSGSGTDFTLKISRVEAEDVGVYYCSQNTHVPPTFGQGTKVEIERTVAAPSVFIFPPSDEQLKSGTASVVCLLNNFYPREAKVQWKVDNALQSGNSQESVTEQDSKDSTYSLSSTLTLSKADYEKHKVYACEVTHQGLSSPVTKSFNRGEC
# notes: as for B1
# B5: GpH7-A5/GpH7-B3 variant P329_13S/GpL16-k0 (antibody, human IgG1, kappa)
# heavy 1: not shown
# heavy 2: not shown
# light: DIVMTQSPLSLPVTPGEPASISCQASESLVHSNRNTYLHWYLQKPGQSPQLLIYKVSNRFSGVPDRFSGSGSGTDFTLKISRVEAEDVGVYYCSQNTHVPPTFGQGTKVEIERTVAAPSVFIFPPSDEQLKSGTASVVCLLNNFYPREAKVQWKVDNALQSGNSQESVTEQDSKDSTYSLSSTLTLSKADYEKHKVYACEVTHQGLSSPVTKSFNRGEC
# notes: as for B1
# B6: GpH7-A5/GpH7-B3 variant P329_08L/GpL16-k0 (antibody, human IgG1, kappa)
# heavy 1: not shown
# heavy 2: not shown
# light: DIVMTQSPLSLPVTPGEPASISCQASESLVHSNRNTYLHWYLQKPGQSPQLLIYKVSNRFSGVPDRFSGSGSGTDFTLKISRVEAEDVGVYYCSQNTHVPPTFGQGTKVEIERTVAAPSVFIFPPSDEQLKSGTASVVCLLNNFYPREAKVQWKVDNALQSGNSQESVTEQDSKDSTYSLSSTLTLSKADYEKHKVYACEVTHQGLSSPVTKSFNRGEC
# notes: as for B1
# B7: GpH7-A5/GpH7-B3 variant P329_15Y/GpL16-k0 (antibody, human IgG1, kappa)
# heavy 1: not shown
# heavy 2: not shown
# light: DIVMTQSPLSLPVTPGEPASISCQASESLVHSNRNTYLHWYLQKPGQSPQLLIYKVSNRFSGVPDRFSGSGSGTDFTLKISRVEAEDVGVYYCSQNTHVPPTFGQGTKVEIERTVAAPSVFIFPPSDEQLKSGTASVVCLLNNFYPREAKVQWKVDNALQSGNSQESVTEQDSKDSTYSLSSTLTLSKADYEKHKVYACEVTHQGLSSPVTKSFNRGEC
# notes: as for B1
# B8: GpH7-A5/GpH7-B3 variant P329_14T/GpL16-k0 (antibody, human IgG1, kappa)
# heavy 1: not shown
# heavy 2: not shown
# light: DIVMTQSPLSLPVTPGEPASISCQASESLVHSNRNTYLHWYLQKPGQSPQLLIYKVSNRFSGVPDRFSGSGSGTDFTLKISRVEAEDVGVYYCSQNTHVPPTFGQGTKVEIERTVAAPSVFIFPPSDEQLKSGTASVVCLLNNFYPREAKVQWKVDNALQSGNSQESVTEQDSKDSTYSLSSTLTLSKADYEKHKVYACEVTHQGLSSPVTKSFNRGEC
# notes: as for B1
# B9: GpH7-A5/GpH7-B3 variant P329_07I/GpL16-k0 (antibody, human IgG1, kappa)
# heavy 1: not shown
# heavy 2: not shown
# light: DIVMTQSPLSLPVTPGEPASISCQASESLVHSNRNTYLHWYLQKPGQSPQLLIYKVSNRFSGVPDRFSGSGSGTDFTLKISRVEAEDVGVYYCSQNTHVPPTFGQGTKVEIERTVAAPSVFIFPPSDEQLKSGTASVVCLLNNFYPREAKVQWKVDNALQSGNSQESVTEQDSKDSTYSLSSTLTLSKADYEKHKVYACEVTHQGLSSPVTKSFNRGEC
# notes: as for B1
# B10: GpH7-A5/GpH7-B3 variant P329_04F/GpL16-k0 (antibody, human IgG1, kappa)
# heavy 1: not shown
# heavy 2: not shown
# light: DIVMTQSPLSLPVTPGEPASISCQASESLVHSNRNTYLHWYLQKPGQSPQLLIYKVSNRFSGVPDRFSGSGSGTDFTLKISRVEAEDVGVYYCSQNTHVPPTFGQGTKVEIERTVAAPSVFIFPPSDEQLKSGTASVVCLLNNFYPREAKVQWKVDNALQSGNSQESVTEQDSKDSTYSLSSTLTLSKADYEKHKVYACEVTHQGLSSPVTKSFNRGEC
# notes: as for B1
# B11: GpH7-A5/GpH7-B3 variant P329_09D/GpL16-k0 (antibody, human IgG1, kappa)
# heavy 1: not shown
# heavy 2: not shown
# light: DIVMTQSPLSLPVTPGEPASISCQASESLVHSNRNTYLHWYLQKPGQSPQLLIYKVSNRFSGVPDRFSGSGSGTDFTLKISRVEAEDVGVYYCSQNTHVPPTFGQGTKVEIERTVAAPSVFIFPPSDEQLKSGTASVVCLLNNFYPREAKVQWKVDNALQSGNSQESVTEQDSKDSTYSLSSTLTLSKADYEKHKVYACEVTHQGLSSPVTKSFNRGEC
# notes: He Ab; IgG1; mutation in one H chain only; also called GpH7-A5/GpH7-B14/GpL16-k0
# B12: GpH7-A5/GpH7-B3 variant P329_11K/GpL16-k0 (antibody, human IgG1, kappa)
# heavy 1: not shown
# heavy 2: not shown
# light: DIVMTQSPLSLPVTPGEPASISCQASESLVHSNRNTYLHWYLQKPGQSPQLLIYKVSNRFSGVPDRFSGSGSGTDFTLKISRVEAEDVGVYYCSQNTHVPPTFGQGTKVEIERTVAAPSVFIFPPSDEQLKSGTASVVCLLNNFYPREAKVQWKVDNALQSGNSQESVTEQDSKDSTYSLSSTLTLSKADYEKHKVYACEVTHQGLSSPVTKSFNRGEC
# notes: He Ab; IgG1; mutation in one H chain only; also called GpH7-A5/GpH7-B13/GpL16-k0
# B13: GpH7-A5/GpH7-B3 variant P329_10E/GpL16-k0 (antibody, human IgG1, kappa)
# heavy 1: not shown
# heavy 2: not shown
# light: DIVMTQSPLSLPVTPGEPASISCQASESLVHSNRNTYLHWYLQKPGQSPQLLIYKVSNRFSGVPDRFSGSGSGTDFTLKISRVEAEDVGVYYCSQNTHVPPTFGQGTKVEIERTVAAPSVFIFPPSDEQLKSGTASVVCLLNNFYPREAKVQWKVDNALQSGNSQESVTEQDSKDSTYSLSSTLTLSKADYEKHKVYACEVTHQGLSSPVTKSFNRGEC
# notes: He Ab; IgG1; mutation in one H chain only; also called GpH7-A5/GpH7-B15/GpL16-k0
# B14: GpH7-A5/GpH7-B3 variant P329_02A/GpL16-k0 (antibody, human IgG1, kappa)
# heavy 1: not shown
# heavy 2: not shown
# light: DIVMTQSPLSLPVTPGEPASISCQASESLVHSNRNTYLHWYLQKPGQSPQLLIYKVSNRFSGVPDRFSGSGSGTDFTLKISRVEAEDVGVYYCSQNTHVPPTFGQGTKVEIERTVAAPSVFIFPPSDEQLKSGTASVVCLLNNFYPREAKVQWKVDNALQSGNSQESVTEQDSKDSTYSLSSTLTLSKADYEKHKVYACEVTHQGLSSPVTKSFNRGEC
# notes: as for B1
# B15: GpH7-A5/GpH7-B3 variant P329_03V/GpL16-k0 (antibody, human IgG1, kappa)
# heavy 1: not shown
# heavy 2: not shown
# light: DIVMTQSPLSLPVTPGEPASISCQASESLVHSNRNTYLHWYLQKPGQSPQLLIYKVSNRFSGVPDRFSGSGSGTDFTLKISRVEAEDVGVYYCSQNTHVPPTFGQGTKVEIERTVAAPSVFIFPPSDEQLKSGTASVVCLLNNFYPREAKVQWKVDNALQSGNSQESVTEQDSKDSTYSLSSTLTLSKADYEKHKVYACEVTHQGLSSPVTKSFNRGEC
# notes: as for B1
# B16: GpH7-A5/GpH7-B3 variant P329_12R/GpL16-k0 (antibody, human IgG1, kappa)
# heavy 1: not shown
# heavy 2: not shown
# light: DIVMTQSPLSLPVTPGEPASISCQASESLVHSNRNTYLHWYLQKPGQSPQLLIYKVSNRFSGVPDRFSGSGSGTDFTLKISRVEAEDVGVYYCSQNTHVPPTFGQGTKVEIERTVAAPSVFIFPPSDEQLKSGTASVVCLLNNFYPREAKVQWKVDNALQSGNSQESVTEQDSKDSTYSLSSTLTLSKADYEKHKVYACEVTHQGLSSPVTKSFNRGEC
# notes: He Ab; IgG1; mutation in one H chain only; also called GpH7-A5/GpH7-B12/GpL16-k0
# Columns and labels:
# FcγRIIa R [1] = molecular target: T1, FcγRIIa R; test: SPR (Biacore), captured antibody, FcγR analyte; binding relative to GpH7-A5/GpH7-B3/GpL16-k0 = 100
# FcγRIIb = molecular target: T2, FcγRIIb; test: as above
# FcγRIIa R [2] = molecular target: T1, FcγRIIa R; test: He/Con_2aR divided by He/Con_2b (FcγRIIa R over FcγRIIb); SPR (Biacore)
Binder,He/Con_2aR (IIaR binding) (FcγRIIa R [1]) [control=100],He/Con_2b (IIb binding) (FcγRIIb) [control=100],IIaR/IIb (He_2aR/2b) (FcγRIIa R [2]) [ratio]
B1,92.1,69.1,1.33
B2,61.2,40.4,1.51
B3,56.7,39.1,1.45
B4,42.7,29.1,1.47
B5,61.5,41,1.5
B6,42.8,29.1,1.47
B7,67.9,45.7,1.49
B8,57.3,37.9,1.51
B9,49.6,34.6,1.44
B10,44.7,32.2,1.39
B11,67.8,53.5,1.27
B12,30.2,16.9,1.79
B13,64.8,52.7,1.23
B14,58.9,40.5,1.45
B15,53.8,38.5,1.4
B16,29.3,17.6,1.66
